Paper PMC11098961

Molecular target: PME-1 (UniProt Q9Y570)
Assay: FLAG-PP2Ac immunoprecipitation, PME-1 blot
Conditions: reference: wild type

binding against the reference (sites S225,T227) | binding against the reference (sites S285) | Substance
weaker |  | PP2Ac (from UniProt P67775) S225A/T227A
 | weaker | PP2Ac (from UniProt P67775) S285A
